In US20250289871A1 (AstraZeneca / MedImmune, published 2025) one finds Kd data, which are given here for 3 molecules.

The experiment deals with SARS-CoV-2 spike RBD (residues 334-526), AviTag and 8×HisTag (SARS-CoV-2, UniProt P0DTC2 334-526).

B1: RQ33 (TM-YTE) (antibody, V domains shown)
VH: QVQLQESGPGLVKPSETLSLTCTVFGGSITSSNHYWVWIRQPPGKGLEWIGSMYYSGSTAYNPSLTNRVTISVDTSKNQFSLKLSSVTAADTAVYYCARQIGPKRPSQVADWFDPWGQGTLVTVSS
VL: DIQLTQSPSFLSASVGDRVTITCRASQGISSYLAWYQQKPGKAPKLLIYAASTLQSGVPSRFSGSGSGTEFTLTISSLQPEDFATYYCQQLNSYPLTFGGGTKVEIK
As to B1, the Kd was found to be 3.65 nM.

B2: RQ43 (TM-YTE) (antibody, V domains shown)
VH: EVQLLETGGGLVQPGRSLRLSCAASGFPFDDYAIHWVRLAPGKGLEWVSSISWDSGSIGYADSVKGRFTISRDNAKNSLYLQMNSLRAEDTALYYCAKGAFPGYSSGWYYGLDVWGQGATVTVSS
VL: QSVVTQPPSASGSLGQSVTISCTGTSSDVGGYNYVSWYQQHPGKAPKLMIFEVSKRPSGVPDRFSGSKSGNTASLTVSGLQAEDEADYYCSSYAGNKGVFGGGTKLTVL
B2: the Kd is < 0.001 nM.

B3: RQ40 (TM-YTE) (antibody, V domains shown)
VH: EVQLVESGAEVKKPGSSVKVSCKASGGTFSSYAINWVRQAPGQGLEWMGGIIPIFRTPHYAQKFQGRVTITADESTGTAYMELSSLRSEDTAVYYCASPSCGGDCPQYLKSSKLDWYFDLWGRGTLVTVSS
VL: VIWMTQSPGTLSLSPGERATLSCRASQSVSSTYLAWYQQKPGQAPRLLIYGASSRATGIPDRFSGSGSGTDFTLTISRLEPEDFAVYYCQHYGSSPLTFGQGTRLEIK
For the molecule B3, the Kd was < 0.001 nM.

For orientation: Kd means the concentration at which binding is half-saturated. Low readings indicate tighter binding, high ones weaker binding.
